The results in this text go back to the supplement of paper PMC12042874.

± gives the uncertainty stated by the source.

This data set in a line: amyloid nucleation score (Sup35N fusion, yeast selection) (log enrichment); library NNK2; higher = more nucleation; inactive = no reads after selection. The gist of the method: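 Nucleation score is defined as the DiMSum log enrichment of output over input reads, with centring on the mode score of non-aggregating sequences. A minimum of 100 input reads was required for each sequence. Reads came from Illumina sequencing of plasmid inserts from psi-negative yeast expressing Sup35N fused to peptides of 20 random codons, induced with 100 μM copper sulfate for 24 hours and grown 7 days at 30°C on medium lacking adenine and uracil.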
DLEYF gave an amyloid nucleation score of -1.56 ± 0.54.

For DLFGCFVNCRSRL, the amyloid nucleation score was 2.89 ± 0.092.

Substance DLGYDLTINWAFERLADRVN registered an amyloid nucleation score of -1.46 ± 1.

As to DLIGPYRVLRFCRWV, the amyloid nucleation score was 2.8 ± 0.099.

On to DLIYGGYST, for which the amyloid nucleation score entry is “inactive”.

DLRYTMYYDCFCYVFCPSMT gave an amyloid nucleation score of 8.166 ± 0.059.

Regarding DLSSALRAMRSYSHLSTVGI, the amyloid nucleation score entry is “inactive”.

On to DLVHFLRNRWCGIR, for which the amyloid nucleation score was -0.73 ± 0.55.

DLVVYLSPVGGTGRFYEVGA had an amyloid nucleation score of 3.92 ± 0.062.

The substance DMHCFSEGRHGGLTCAGCLR yielded an amyloid nucleation score of 1.1 ± 0.19.

With DMMRFYGAPDGQGNTHQNRT, the amyloid nucleation score turned out to be 1.63 ± 0.12.

As for DMRLWCVWSSIACDTSYSTS, the amyloid nucleation score turned out to be 0.26 ± 0.2.

The substance DMSSHGGWFRPRRFLEISPL yielded an amyloid nucleation score of 0.183 ± 1.

DMWMRVILSDNGNQEVPK had an amyloid nucleation score of -0.293 ± 0.27.

On to DNIKTVSRMTWPWLMFTVGG, for which the amyloid nucleation score was 0.3 ± 0.55.

Consider DNSVHCSFSYFNLPELKGCY, for which the amyloid nucleation score was 3.8 ± 0.065.

DNTLLALVGM displayed an amyloid nucleation score of 1.57 ± 0.58.

DNVLYHPDGFGMISALTGVV yielded an amyloid nucleation score of -0.753 ± 0.45.

The substance DNYLYYYFYSFRLTEALFIC yielded an amyloid nucleation score of -0.297 ± 1.1.

Regarding DNYSRCGICWVSLRVLYVRR, the amyloid nucleation score entry is “inactive”.

As to DPITFEVSCNANVIDPNSLV, the amyloid nucleation score is -1.22 ± 0.38.

DPVTMLYSF returned an amyloid nucleation score of 0.179 ± 0.32.

Regarding DQALGGEMWWL, the amyloid nucleation score is -0.14 ± 0.45.

As for DQCELVSGVWLSIRSADLPY, the amyloid nucleation score is 0.176 ± 0.35.

The substance DQFWSENRIDYDNLAIRLQL came in with an amyloid nucleation score of -1.1 ± 0.76.

For DQLVQGYGNTGWQLGYRMAG, the amyloid nucleation score came out at 5.35 ± 0.056.

Consider DQTWNWNVGIGFYRSYFLMY, for which the amyloid nucleation score result was “inactive”.

Regarding DRARMYYYSEIHSVVTSIIK, the amyloid nucleation score entry is “inactive”.

The substance DRFRDVIICFFKCTCNRITQ displayed an amyloid nucleation score of 4.949 ± 0.034.

Take DRFRYICSYVENSDYLLRCL: the amyloid nucleation score entry is “inactive”.

The substance DRFVLIVHINRGRV came in with an amyloid nucleation score of 3.86 ± 0.048.

The substance DRGYKSYGG returned an amyloid nucleation score of 0.775 ± 0.74.

The substance DRLLRSRLGIRSNRIVCW had an amyloid nucleation score of -0.539 ± 0.36.

In the case of DRRLCLCLLIMSC, the amyloid nucleation score was -0.578 ± 0.79.

As to DRWEPKLI, the amyloid nucleation score is -0.516 ± 0.23.

Regarding DRYHDTMAMKARVWSDRCKS, the amyloid nucleation score turned out to be 1.94 ± 0.34.

The substance DSCCMSYSRQNCTY had an amyloid nucleation score of 0.218 ± 0.8.

DSDLLVTHMVMLYKHVE displayed an amyloid nucleation score of 3.79 ± 0.065.

Substance DSFVIAVLQIIPYTLTQHSK gave an amyloid nucleation score of 1.7 ± 0.085.

The substance DSGEPWILMFLDGYLSAMRL displayed an amyloid nucleation score of -0.513 ± 0.61.

Turning to DSGFFWCV, the amyloid nucleation score result was “inactive”.

As for DSLINFRLKVPTMLCMFCWI, the amyloid nucleation score was 0.401 ± 0.62.

The substance DSRIGYTSYQRFTMKSNVLC showed an amyloid nucleation score of 0.024 ± 0.44.

Substance DSSGFCMMVYYIQ yielded an amyloid nucleation score of -0.365 ± 0.76.

As for DSSIDRWF, the amyloid nucleation score was 1.15 ± 0.22.

On to DSSRAVLGVIRYSSEGSL, for which the amyloid nucleation score was -0.34 ± 0.41.

The substance DSVCYNFNFNTF returned an amyloid nucleation score of 5.711 ± 0.027.

DSVIWVCIVWRRSSSTMCVM yielded an amyloid nucleation score of 1.01 ± 0.38.

Take DSWSIMWSLC: the amyloid nucleation score is -0.272 ± 1.1.

For DTKTIRFLYKRYRLSWQVSE, the amyloid nucleation score stood at 4.587 ± 0.04.

With DTLFNCFSCIVKLMSYIKSL, the amyloid nucleation score entry was “inactive”.

Take DTMDSAAFTLHCIVWGYPVG: the amyloid nucleation score result is “inactive”.

In turn, DTRLIGECQLGSGVTVLSLG showed an amyloid nucleation score of 0.252 ± 0.27.

DTSAIFSYALLL gave an amyloid nucleation score of 4.56 ± 0.058.

In the case of DVETL, the amyloid nucleation score is -1.24 ± 0.41.

Consider DVFGRGLMKEMGFVNFTLYY, for which the amyloid nucleation score entry is “inactive”.

The substance DVHFCNNLLLKRRRGSVVA showed an amyloid nucleation score of -0.153 ± 0.41.

Take DVKKYLRGYCIRPCLLSYLI: the amyloid nucleation score was -0.807 ± 0.79.

For DVLGLSGACFGITERVDRLA, the amyloid nucleation score stood at 2.32 ± 0.1.

The substance DVPLCLYCMYLSSFRVVIWM displayed an amyloid nucleation score of 2.35 ± 0.1.

In turn, DVQGWFVITSGFADGSQARR returned an amyloid nucleation score of 1.19 ± 0.17.

DVRHQWFEMVRVVIICKPVN yielded an amyloid nucleation score of -0.149 ± 0.42.

DVRSRVHWDMSDQQFIMWWV: the amyloid nucleation score is -0.716 ± 1.1.

Substance DWCWAMDLYSFVFHCRLEAF registered an amyloid nucleation score of -0.658 ± 1.

The substance DYDNW returned an amyloid nucleation score of -0.618 ± 1.1.

As for DYKDYNLCGITHMESF, the amyloid nucleation score was -0.442 ± 1.

Turning to DYLCGNFKCYCVFTNDGNRF, the amyloid nucleation score is 2.42 ± 0.21.

Substance DYLRYRYSMFCTCPAVTQS registered an amyloid nucleation score of -0.567 ± 0.78.

Substance DYRMCI had an amyloid nucleation score of 0.926 ± 0.48.

In the case of DYSGYHFMEQVP, the amyloid nucleation score is -0.363 ± 0.33.

For DYSSVVYNDGIWKGAPNFK, the amyloid nucleation score was -2.05 ± 0.78.

With DYTSVSMVIHVCKRL, the amyloid nucleation score is 5.59 ± 0.097.

The substance DYVSRKCFRDKWSERSSCRG registered an amyloid nucleation score of 0.085 ± 0.37.

With DYYRPIIGH, the amyloid nucleation score was -0.407 ± 0.28.

Consider EAFYLSFFN, for which the amyloid nucleation score result is “inactive”.

Substance EARVSRLFT had an amyloid nucleation score of 0.542 ± 0.18.

Consider ECDYRTLSLNMVLNYCRKGG, for which the amyloid nucleation score is 5.955 ± 0.046.

For ECNSSALHNWKY, the amyloid nucleation score was 0.088 ± 0.54.

Turning to ECSHQIL, the amyloid nucleation score is -0.179 ± 0.63.

The substance EDAFMSFCMVRLWDHF registered an amyloid nucleation score of -0.089 ± 1.1.

As to EDIGSGGKTRFLDRRWVFCN, the amyloid nucleation score entry is “inactive”.

For EDKLFINLSRELVFGKIRPT, the amyloid nucleation score worked out at 6.138 ± 0.053.

In turn, EESSTKGMTG returned an amyloid nucleation score of -0.014 ± 0.26.

EFMNDVIILIYLSFKRTILN gave an amyloid nucleation score of -0.541 ± 1.1.

For EFMYKQCRYIVTPYGLVVSR, the amyloid nucleation score is -0.557 ± 1.1.

Substance EFRNLT had an amyloid nucleation score of -0.213 ± 0.18.

In the case of EFTAFYGQEFKW, the amyloid nucleation score stood at 0.182 ± 1.1.

EGICFLLMDCSCNNCFLALA: the amyloid nucleation score stood at 4.66 ± 0.055.

In turn, EGLRVEMCYGKNVSFMIGSY gave an amyloid nucleation score of 5.727 ± 0.049.

As for EGMSI, the amyloid nucleation score entry was “inactive”.

As to EHLWYLIREIPNHEFKNKLE, the amyloid nucleation score is 0.073 ± 0.42.

With EIMSFSVRSKYAFWIPIAIC, the amyloid nucleation score was -0.026 ± 0.53.

EIQHRNTAYYRSVSVGPTAV showed an amyloid nucleation score of 0.987 ± 0.67.

Take EIYCCAYPLFCVWVVTGIRL: the amyloid nucleation score stood at 1.62 ± 0.13.

ELSHSLSIKATVEGS: the amyloid nucleation score came to 0.279 ± 0.56.

Substance ELVRDASECRYIIVCLNSVA had an amyloid nucleation score of -0.047 ± 0.65.

In turn, ELYWGS showed an amyloid nucleation score of 0.509 ± 0.57.

As to EMSGY, the amyloid nucleation score result is “inactive”.

EMVQVVSAQGKTKL: the amyloid nucleation score turned out to be 8.461 ± 0.061.

Substance ENCFVSICVGSATLGMCSSG had an amyloid nucleation score of 8.02 ± 0.034.

The substance ENKGGCFARVDVGCVGSGMR displayed an amyloid nucleation score of 0.014 ± 0.42.

In the case of ENLKCEPLGRVRLKDHVYVV, the amyloid nucleation score was determined as 0.228 ± 0.27.

With ENNVKLIRNTTNTVVYHLIP, the amyloid nucleation score is 7.64 ± 0.06.

Consider EPHSAI, for which the amyloid nucleation score was -0.1 ± 1.

ERKHTFHAVGHGLQESLVRF gave an amyloid nucleation score of -0.212 ± 0.45.

For the substance ERMSLMGWDFIKCRISLAMS, the amyloid nucleation score is -0.021 ± 0.65.

With ERNLLRNSDDMD, the amyloid nucleation score is -0.642 ± 1.1.

For the substance ERYVCKGC, the amyloid nucleation score result was “inactive”.

ESIRAGLRRSRLWNRGFGES had an amyloid nucleation score of 0.738 ± 0.27.

On to ESLGDSI, for which the amyloid nucleation score is -0.352 ± 1.

With ESNMSKLAFRRDTVF, the amyloid nucleation score entry was “inactive”.

ESRGSCSIKNYRLVWDC gave an amyloid nucleation score of -0.451 ± 0.74.

As to ESSSVKPPVRFLW, the amyloid nucleation score amounted to 0.455 ± 0.64.

As for ESYIWMLRGHMLCKDEVMNV, the amyloid nucleation score is -0.611 ± 0.74.

As for ETLAVLRIPCSRLYDHIYNF, the amyloid nucleation score was -0.791 ± 0.78.

ETTNTQVNAIVRNFGQ displayed an amyloid nucleation score of 0.002 ± 0.55.

Regarding EVEIEE, the amyloid nucleation score is -0.576 ± 0.76.

Regarding EVERGIN, the amyloid nucleation score came out at 0.62 ± 0.56.

On to EVFACTSG, for which the amyloid nucleation score turned out to be 1.56 ± 0.44.

The substance EVMCMSRYDPR registered an amyloid nucleation score of -0.557 ± 1.1.

As for EVRIDHGHVIA, the amyloid nucleation score came out at 0.293 ± 0.43.

As to EWIIERRSL, the amyloid nucleation score was -0.279 ± 0.63.

Substance EWVMKSWV displayed an amyloid nucleation score of -0.578 ± 1.1.

The substance EYEYGGYNSMNLNYIVARSE showed an amyloid nucleation score of 0.218 ± 0.48.

In turn, EYLRPSWSH gave an amyloid nucleation score of -0.971 ± 0.56.

The substance EYNDRCV returned an amyloid nucleation score of 0.974 ± 0.28.

The substance EYRYCMTHYYFLRCKLFNIF returned an amyloid nucleation score of -1.06 ± 0.63.

For FAAHCFDFMIHVPMGPAENK, the amyloid nucleation score came out at 3.69 ± 0.13.

With FACFI, the amyloid nucleation score turned out to be 0.271 ± 0.25.

With FAGWIYGCTDRMVCLCSGGF, the amyloid nucleation score entry was “inactive”.

Consider FAHAIVSHDWDQRVRGWSGC, for which the amyloid nucleation score came out at 0.836 ± 0.41.

Take FAKCHFSQSARYIY: the amyloid nucleation score result was “inactive”.

FALLPCDKVCLGVREWFNFG: the amyloid nucleation score entry was “inactive”.

FANRILCVVSGINRVTGL registered an amyloid nucleation score of 0.192 ± 0.34.

FAPCNCSCVK came in with an amyloid nucleation score of 0.827 ± 0.58.

The substance FAYFDDLGVLMLYQLNRMSL returned an amyloid nucleation score of -0.097 ± 1.1.

FCCHHCITGITEKAN displayed an amyloid nucleation score of 0.674 ± 0.36.

FCEICPKYYALFEEGQLSGR came in with an amyloid nucleation score of 3.62 ± 0.068.

FCESCKWNL came in with an amyloid nucleation score of 1.29 ± 0.14.

On to FCIPYGGLIDTA, for which the amyloid nucleation score was -1.52 ± 0.41.

FCLIHVVM displayed an amyloid nucleation score of 1.32 ± 0.27.

For FCMAISFQCVNTRGFMPTAG, the amyloid nucleation score was 7.394 ± 0.071.
